Patent publication US20120171123A1, “USES AND COMPOSITIONS FOR TREATMENT OF RHEUMATOID ARTHRITIS” (priority 2006, published 2012)

Tests used:
[1] = tested on: patients with severe RA who had failed MTX; test: Study 2 / Study 3 OLE (adalimumab monotherapy): SF-36; format: in vivo, human; settings: within 26 weeks
Protocol: In addition to the SF-36 instrument, the Health Utilities Index Mark 3 (HUI3) and the Functional Assessment of Chronic Illness Therapy-Fatigue (FACIT-F) questionnaires were administered at baseline, 12 weeks, and the end of the study.
The HUI3 scale is 0-1, with “1” denoting perfect health and “0” denoting death. FACIT-F scores range from 0-52, with higher scores representing less fatigue. The SF-36 includes one multi-item scale that assesses eight different dimensions of health, including physical and psychosocial components. For each dimension a value of 0-100 is given, with higher numbers representing less impairment. Changes in HUI3 of ≧0.03, in FACIT-F of ≧4 and in SF-36 of ≧4.4 (physical subscales) and ≧3.1 (mental subscales) are considered clinically meaningful.
In addition to clinical parameters, the SF-36 instrument, the Health Utilities Index Mark 3 (HUI3), and the Functional Assessment of Chronic Illness Therapy-Fatigue (FACIT-F) questionnaires were administered at baseline, and at weeks 12, 26, 50, 74, 98, 122, 146 and 170, respectively. The HUI3 scale ranges from 0-1, with “1” denoting perfect health and “0” denoting death. FACIT-F scores range from 0-52, with higher scores representing less fatigue. SF-36 scores range from 0-100 with higher scores indicating improvement in HRQoL. […]

[2] = tested on: patients with RA who had failed prior treatment with infliximab; test: Adalimumab after failed infliximab: HAQ; format: in vivo, human
Description: (§1) Patients eligible to participate in the study included those with long-standing, moderate to severe RA who had terminated infliximab therapy because of lack or loss of efficacy and/or intolerance/side effects. […] Follow-up visits for safety and efficacy monitoring were scheduled at 2, 8, and 16 weeks. […] Efficacy parameters included TJC28 and SJC28; DAS28; ACR20, ACR50 Response; Moderate EULAR response; and HAQ. Subgroup analysis by reason for discontinuation included: • in case of discontinuation due to lack or loss of efficacy, patients were counted in the corresponding group regardless of additional cause of intolerance. • The subgroup “Discontinuation due to intolerance” was exclusive.

[3] = tested on: patients with RA who had failed prior treatment with infliximab; test: Adalimumab after failed infliximab: ACR20/ACR50 and moderate EULAR response; format: in vivo, human; settings: 16 wk
Description: as §1

[4] = tested on: patients with moderate to severe rheumatoid arthritis; test: Study C: medically relevant adverse events; format: in vivo, human
Protocol: The Canadian Adalimumab Clinical Trial (Study C) was an open-label, multi-center, Phase IIIb study conducted in Canada. […] Efficacy and safety were assessed at baseline, 4, 8, and 12 weeks. Efficacy assessments included tender joint count (TJC 0-28), swollen joint count (SJC 0-28), Disease Activity Score 28 (DAS28), Health Assessment Questionnaire (HAQ), and EULAR response. […] The sample size for each outcome variable is based on the data available at the time of the analysis. The data from this preliminary analysis were compared with the Week 12 data from Study A (N=2008).

[5] = tested on: patients with early vs. long-standing RA; settings: human, in vivo
Description: (§2) Study J was a 2-year randomized controlled trial in patients with early RA (disease duration<3 years). Participants in these clinical trials and in other phase Mb studies, were routinely evaluated for safety. Reports of serious adverse events (SAE) were tabulated using MedDRA coding by events per 100-patient-years (E/100PY). SAE rates were compared with respect to disease duration between patients with early (<3 yrs) and long-standing RA.

[6] = tested on: patients with early vs. long-standing RA; test: Safety of adalimumab in global clinical trials, early vs long-standing RA (serious adverse event rates, demyelinating disease, lymphoma)
Description: as §2

[7] = all reasons for infliximab withdrawal (N=37)
[8] = loss of response to infliximab (N=19)
[9] = no response to infliximab (N=13)
[10] = All Trials adalimumab (4870 PY), data for registration
[11] = Combined (long-standing + early RA)
[12] = Early RA, Study J (N=542; 917 PY)
[13] = Early RA, Study J, N (Exposure) 542 (917)
[14] = Long-standing RA, 31-Aug.-2004 (N=10,050; 12,066 PY)
[15] = Long-standing RA, 31-Aug.-2004, N (Exposure) 10,050 (12,066)

adalimumab: human anti-TNF mAb (HUMIRA, Abbott Laboratories), described in U.S. Pat. No. 6,090,382 as D2E7
SF-36 scores of all subscales/domains [1]: clinically meaningful improvements | change in HAQ ([2]; week 16, all (n=37)): −0.25 | change in HAQ ([2]; week 16, infliximab stopped for intolerance (n=5)): −0.15 | change in HAQ ([2]; week 16, infliximab stopped for loss of response (n=19)): −0.36 | change in HAQ ([2]; week 16, infliximab stopped for no response (n=13)): −0.23 | ACR20 [3, 7]: 49% | ACR50 [3, 7]: 26% | Moderate EULAR response [3, 7]: 65% | ACR20 ([3]; infliximab intolerance (N=5)): 40% | ACR50 ([3]; infliximab intolerance (N=5)): 20% | Moderate EULAR response ([3]; infliximab intolerance (N=5)): 80% | ACR20 [3, 8]: 61% | ACR50 [3, 8]: 39% | Moderate EULAR response [3, 8]: 74% | ACR20 [3, 9]: 33% | ACR50 [3, 9]: 8% | Moderate EULAR response [3, 9]: 46% | Infections: Influenza, number ([4]; Study C (n=879)): Influenza (1) | Infections: Pneumonia, number ([4]; Study C (n=879)): Pneumonia (3) | Infections: Post-operative infections, number ([4]; Study C (n=879)): infections (3) | Infections: Pyelonephritis, number ([4]; Study C (n=879)): Pyelonephritis (1) | Infections: Sinusitis, number ([4]; Study C (n=879)): Sinusitis (1) | Medically relevant adverse events: Congestive heart failure, % ([4]; Study C (n=879)): 0.1% | Medically relevant adverse events: Congestive heart failure, number ([4]; Study C (n=879)): 1 | Infections: Atypical infection (nodules), number ([4]; in vivo): (nodules) (1) | Infections: Infected prosthesis, number ([4]; in vivo): Infected prosthesis (1) | Medically relevant adverse events: Infections, % ([4]; in vivo): 1.3% | Medically relevant adverse events: Infections, number ([4]; in vivo): 11 | Medically relevant adverse events: Malignancies, % ([4]; in vivo): 0.2% | Medically relevant adverse events: Malignancies, number ([4]; in vivo): 2 | Any serious infection [5]: 0.040 N/PY | Serious infections [5]: 4.8 E/100PY | Malignancies [6, 10]: 0.006 N/PY | Pneumonia [6, 10]: 0.008 N/PY | TB [6, 10]: 0.003 N/PY | Total lymphomas, Expected [6, 11]: 5.16 cases | Total lymphomas, Observed [6, 11]: 15 cases | Total lymphomas, SIR [6, 11]: 2.91 | Total lymphomas, Expected ([6]; Early RA): 0.37 cases | Total lymphomas, Observed ([6]; Early RA): 0 cases | Total lymphomas, SIR ([6]; Early RA): 0 | cases of lymphoma ([6]; Early RA): No cases | Congestive Heart Failure rate [6, 12]: 0.11 E/100PY | Demyelinating Diseases rate [6, 12]: 0.00 E/100PY | Lymphoma rate [6, 12]: 0.00 E/100PY | Pancytopenia rate [6, 12]: 0.00 E/100PY | Pneumonia (serious) rate [6, 12]: 0.55 E/100PY | SLE/Lupus-like Syndrome rate [6, 12]: 0.00 E/100PY | Septic Arthritis rate [6, 12]: 0.22 E/100PY | Serious Infections rate [6, 12]: 1.85 E/100PY | Tuberculosis rate [6, 12]: 0.11 E/100PY | Urinary Tract Infections (serious) rate [6, 12]: 0.11 E/100PY | Cases of Guillain-Barre syndrome [6, 13]: 0 cases | Cases of Multiple sclerosis [6, 13]: 0 cases | Cases of Non-specific demyelination [6, 13]: 0 cases | Hodgkin's, Expected ([6]; Long-standing RA): 0.36 cases | Hodgkin's, Observed ([6]; Long-standing RA): 1 cases | Hodgkin's, SIR ([6]; Long-standing RA): 2.78 | NHL, Expected ([6]; Long-standing RA): 4.32 cases | NHL, Observed ([6]; Long-standing RA): 14 cases | NHL, SIR ([6]; Long-standing RA): 3.24 | Total lymphomas, Expected ([6]; Long-standing RA): 4.68 cases | Total lymphomas, Observed ([6]; Long-standing RA): 15 cases | Total lymphomas, SIR ([6]; Long-standing RA): 3.21 | Congestive Heart Failure rate [6, 14]: 0.26 E/100PY | Demyelinating Diseases rate [6, 14]: 0.07 E/100PY | Lymphoma rate [6, 14]: 0.11 E/100PY | Pancytopenia rate [6, 14]: 0.02 E/100PY | Pneumonia (serious) rate [6, 14]: 0.87 E/100PY | SLE/Lupus-like Syndrome rate [6, 14]: 0.06 E/100PY | Septic Arthritis rate [6, 14]: 0.46 E/100PY | Serious Infections rate [6, 14]: 4.79 E/100PY | Tuberculosis rate [6, 14]: 0.24 E/100PY | Urinary Tract Infections (serious) rate [6, 14]: 0.38 E/100PY | Cases of Guillain-Barre syndrome [6, 15]: 2 cases | Cases of Multiple sclerosis [6, 15]: 4 cases | Cases of Non-specific demyelination [6, 15]: 2 cases | lymphoma combined SIR ([6]; all RA patients in adalimumab clinical trials, 95% CI 1.63-4.80): 2.91 | cases of demyelinating diseases ([6]; early RA (Study J)): No cases | cases of demyelinating diseases ([6]; long-standing RA, through Aug. 31, 2004): Eight | cases of lymphoma ([6]; long-standing RA, through August 2004): Fifteen
